Data taken from paper PMC8041777, “Protein kinase A controls the hexosamine pathway by tuning the feedback inhibition of GFAT-1” (Nature Communications, 2021).

Each protein was assayed on NC(=O)CC[C@H](N)C(=O)O (assay: purified protein). Settings: 6 mM Frc6P, 1 mM APAD, 50 mM KCl, 100 mM potassium phosphate pH 7.5, 37 °C.
Type: biochemical, Homo sapiens

Protein	Km [µM]	kcat [s⁻¹]	kcat/Km [M⁻¹ s⁻¹]
GFAT-1 (human GFAT-1 isoform 2, hGFAT1) (Homo sapiens; R306H) (protein, full length, internal His6-tag between Gly299 and Asp300 (kept), expressed in Sf21 insect cells (MultiBac), Ni-NTA and SEC purified) CGIFAYLNYHVPRTRREILETLIKGLQRLEYRGYDSAGVGFDGGNDKDWEANACKIQLIKKKGKVKALDEEVHKQQDMDLDIEFDVHLGIAHTRWATHGEPSPVNSHPQRSDKNNEFIVIHNGIITNYKDLKKFLESKGYDFESETDTETIAKLVKYMYDNRESQDTSFTTLVERVIQQLEGAFALVFKSVHFPGQAVGTRRGSPLLIGVRSEHKLSTDHIPILYRTGKDKKGSCNLSRVDSTTCLFPVEEKAVEYYFASDASAVIEHTNRVIFLEDDDVAAVVDGHLSIHRIKRTAGDHPGRAVQTLQMELQQIMKGNFSSFMQKEIFEQPESVVNTMRGRVNFDDYTVNLGGLKDHIKEIQRCRRLILIACGTSYHAGVATRQVLEELTELPVMVELASDFLDRNTPVFRDDVCFFLSQSGETADTLMGLRYCKERGALTVGITNTVGSSISRETDCGVHINAGPEIGVASTKAYTSQFVSLVMFALMMCDDRISMQERRKEIMLGLKRLPDLIKEVLSMDDEIQKLATELYHQKSVLIMGRGYHYATCLEGALKIKEITYMHSEGILAGELKHGPLALVDKLMPVIMIIMRDHTYAKCQNALQQVVARQGRPVVICDKEDTETIKNTKRTIKVPHSVDCLQGILSVIPLQLLAFHLAVLRGYDVDFPRNLAKSVTVE	1600 ± 270	4.8 ± 0.26	3000
GFAT-1 (human GFAT-1 isoform 2, hGFAT1) (Homo sapiens; S308D) (protein, full length, internal His6-tag between Gly299 and Asp300 (kept), expressed in Sf21 insect cells (MultiBac), Ni-NTA and SEC purified) CGIFAYLNYHVPRTRREILETLIKGLQRLEYRGYDSAGVGFDGGNDKDWEANACKIQLIKKKGKVKALDEEVHKQQDMDLDIEFDVHLGIAHTRWATHGEPSPVNSHPQRSDKNNEFIVIHNGIITNYKDLKKFLESKGYDFESETDTETIAKLVKYMYDNRESQDTSFTTLVERVIQQLEGAFALVFKSVHFPGQAVGTRRGSPLLIGVRSEHKLSTDHIPILYRTGKDKKGSCNLSRVDSTTCLFPVEEKAVEYYFASDASAVIEHTNRVIFLEDDDVAAVVDGRLDIHRIKRTAGDHPGRAVQTLQMELQQIMKGNFSSFMQKEIFEQPESVVNTMRGRVNFDDYTVNLGGLKDHIKEIQRCRRLILIACGTSYHAGVATRQVLEELTELPVMVELASDFLDRNTPVFRDDVCFFLSQSGETADTLMGLRYCKERGALTVGITNTVGSSISRETDCGVHINAGPEIGVASTKAYTSQFVSLVMFALMMCDDRISMQERRKEIMLGLKRLPDLIKEVLSMDDEIQKLATELYHQKSVLIMGRGYHYATCLEGALKIKEITYMHSEGILAGELKHGPLALVDKLMPVIMIIMRDHTYAKCQNALQQVVARQGRPVVICDKEDTETIKNTKRTIKVPHSVDCLQGILSVIPLQLLAFHLAVLRGYDVDFPRNLAKSVTVE	1300 ± 230	1.5 ± 0.08	1200
GFAT-1 (human GFAT-1 isoform 2, hGFAT1) (Homo sapiens; L508R) (protein, full length, internal His6-tag between Gly299 and Asp300 (kept), expressed in Sf21 insect cells (MultiBac), Ni-NTA and SEC purified) CGIFAYLNYHVPRTRREILETLIKGLQRLEYRGYDSAGVGFDGGNDKDWEANACKIQLIKKKGKVKALDEEVHKQQDMDLDIEFDVHLGIAHTRWATHGEPSPVNSHPQRSDKNNEFIVIHNGIITNYKDLKKFLESKGYDFESETDTETIAKLVKYMYDNRESQDTSFTTLVERVIQQLEGAFALVFKSVHFPGQAVGTRRGSPLLIGVRSEHKLSTDHIPILYRTGKDKKGSCNLSRVDSTTCLFPVEEKAVEYYFASDASAVIEHTNRVIFLEDDDVAAVVDGRLSIHRIKRTAGDHPGRAVQTLQMELQQIMKGNFSSFMQKEIFEQPESVVNTMRGRVNFDDYTVNLGGLKDHIKEIQRCRRLILIACGTSYHAGVATRQVLEELTELPVMVELASDFLDRNTPVFRDDVCFFLSQSGETADTLMGLRYCKERGALTVGITNTVGSSISRETDCGVHINAGPEIGVASTKAYTSQFVSLVMFARMMCDDRISMQERRKEIMLGLKRLPDLIKEVLSMDDEIQKLATELYHQKSVLIMGRGYHYATCLEGALKIKEITYMHSEGILAGELKHGPLALVDKLMPVIMIIMRDHTYAKCQNALQQVVARQGRPVVICDKEDTETIKNTKRTIKVPHSVDCLQGILSVIPLQLLAFHLAVLRGYDVDFPRNLAKSVTVE	1000 ± 100	3 ± 0.08	3000
